Results published in paper PMC3422339, “Interactions and CCAAT-Binding of Arabidopsis thaliana NF-Y Subunits” (PLoS ONE, 2012).

T1: His-tagged recombinant AtNF-YC3 (Arabidopsis thaliana, UniProt Q9ZVL3 1-217)
T1 construct: AtNF-YC3, Arabidopsis thaliana; source: E. coli, purified (Nickel-agarose); found in inclusion bodies, denatured and renatured
T1 sequence (looked up): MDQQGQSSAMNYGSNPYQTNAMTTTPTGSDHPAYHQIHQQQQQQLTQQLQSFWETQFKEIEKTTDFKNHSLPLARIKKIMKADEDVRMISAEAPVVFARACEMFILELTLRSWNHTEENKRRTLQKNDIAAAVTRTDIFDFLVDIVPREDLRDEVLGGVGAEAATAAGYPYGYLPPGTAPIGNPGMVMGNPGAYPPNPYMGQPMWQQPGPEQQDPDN

T2: His-tagged recombinant AtNF-YC7 (Arabidopsis thaliana, UniProt Q9FGP8 1-212)
T2 construct: AtNF-YC7, Arabidopsis thaliana; source: E. coli, purified (Nickel-agarose); found in inclusion bodies, denatured and renatured
T2 sequence (looked up): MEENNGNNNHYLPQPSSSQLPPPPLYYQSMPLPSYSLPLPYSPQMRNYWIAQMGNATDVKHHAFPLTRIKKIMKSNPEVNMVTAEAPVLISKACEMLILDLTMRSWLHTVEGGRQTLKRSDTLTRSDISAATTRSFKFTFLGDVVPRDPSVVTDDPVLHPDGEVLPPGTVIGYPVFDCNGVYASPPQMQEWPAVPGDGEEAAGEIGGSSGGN

T3: AtNF-YB2/AtNF-YC3 dimer (recombinant, renatured together) (Arabidopsis thaliana, UniProt Q9FGJ3 1-190; Q9ZVL3 1-217)
T3 construct: AtNF-YB2, Arabidopsis thaliana; as the chain of m23; AtNF-YC3, Arabidopsis thaliana; as the chain of m43; source: E. coli, each subunit purified from inclusion bodies, denatured and renatured when mixed together
T3 sequence (looked up) 1: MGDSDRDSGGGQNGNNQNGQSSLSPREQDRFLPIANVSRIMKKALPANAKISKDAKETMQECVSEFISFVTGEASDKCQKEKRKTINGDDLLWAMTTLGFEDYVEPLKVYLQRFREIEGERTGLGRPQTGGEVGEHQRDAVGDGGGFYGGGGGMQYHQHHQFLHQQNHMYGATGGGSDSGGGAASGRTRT
T3 sequence (looked up) 2: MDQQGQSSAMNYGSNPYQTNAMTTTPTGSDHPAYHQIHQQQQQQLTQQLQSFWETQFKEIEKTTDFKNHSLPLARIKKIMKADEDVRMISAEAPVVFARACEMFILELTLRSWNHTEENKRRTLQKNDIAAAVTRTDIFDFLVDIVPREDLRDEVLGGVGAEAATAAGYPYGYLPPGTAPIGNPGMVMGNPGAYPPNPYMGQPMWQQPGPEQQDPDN


What was measured:
Settings in all cases: both partners purified
[1] = target: T1, His-tagged recombinant AtNF-YC3; assay: co-renaturation of denatured subunits; single His-tagged HFD subunits from E. coli inclusion bodies, denatured and renatured when mixed together
[2] = target: T2, His-tagged recombinant AtNF-YC7; assay: as above
[3] = target: T3, AtNF-YB2/AtNF-YC3 dimer (recombinant, …); assay: native gel or EMSA; Figure 5A: recombinant AtNF-YB/AtNF-YC dimers with recombinant AtNF-YA6 or recombinant mouse NF-YA; 32P-labelled CCAAT oligonucleotide; NF-Y buffer, 15 min 20°C; 4.5% polyacrylamide; the read-out is the trimer bound to DNA

binding result [1] | binding result [2] | binding result [3] | Binder
binds | binds |  | His-tagged recombinant AtNF-YB2 (natural protein, Arabidopsis thaliana, UniProt Q9FGJ3 1-190, looked up, AtNF-YB2, Arabidopsis thaliana; also called His-AtNF-YB2; source: E. coli BL21, purified (Nickel-agarose); found in inclusion bodies, denatured and renatured) MGDSDRDSGGGQNGNNQNGQSSLSPREQDRFLPIANVSRIMKKALPANAKISKDAKETMQECVSEFISFVTGEASDKCQKEKRKTINGDDLLWAMTTLGFEDYVEPLKVYLQRFREIEGERTGLGRPQTGGEVGEHQRDAVGDGGGFYGGGGGMQYHQHHQFLHQQNHMYGATGGGSDSGGGAASGRTRT
 |  | binds | recombinant mouse NF-YA (347 residues) (natural protein, mouse NF-YA; 347 residues as printed; source: recombinant) not shown
 |  | binds | recombinant AtNF-YA6 (His-tagged) (natural protein, AtNF-YA6, Arabidopsis thaliana; 308 residues as printed; source: E. coli, purified (Nickel-agarose)) not shown
